Measured values taken from article PMC7943567 (2021).

How the values were obtained:
[1] = target: Fc proteins lasso-grafted with MET-binding peptides (SPR, Fig. 1c); assay: SPR; aMD4 grafted on Fc; divalent, not true 1:1 affinity
[2] = target: UG2 fusion of the MET-binding peptide aMD5 (human); assay: SPR
[3] = target: UG2 fusion of the MET-binding peptide aMD4 (human); assay: SPR
aMD4 (free peptide) = assay: SPR; value cited from earlier paper
aMD5 (free peptide) = assay: SPR; value cited from earlier paper
[4] = target: T1, Fc proteins lasso-grafted with PlxnB1-binding peptides (SPR, Fig. 1c); assay: SPR; PB1m6A9 grafted on Fc; divalent, not true 1:1 affinity
[5] = target: T1, Fc proteins lasso-grafted with …; assay: SPR; PB1m7 grafted on Fc; divalent, not true 1:1 affinity
[6] = target: UG2-m6A9, single-chain tandem uteroglobin dimer grafted with the affinity-matured m6A9 peptide (human, UniProt P11684); assay: SPR
[7] = target: UG2-m6, single-chain tandem uteroglobin dimer with the PB1m6 peptide fused between two UG monomers (human, UniProt P11684); assay: SPR
[8] = target: UG2 fusion of the PlxnB1-binding peptide PB1m7 (human); assay: SPR
PB1m7 (free peptide) = assay: SPR; value cited from earlier paper
PB1m6A9 (free peptide) = assay: SPR; value cited from earlier paper

B1: human MET ectodomain fragment (residues 1-931) with C-terminal biotin acceptor sequence (domain or fragment)
chain: ECKEALAKSEMNVNMKYQLPNFTAETPIQNVILHEHHIFLGATNYIYVLNEEDLQKVAEYKTGPVLEHPDCFPCQDCSSKANLSGGVWKDNINMALVVDTYYDDQLISCGSVNRGTCQRHVFPHNHTADIQSEVHCIFSPQIEEPSQCPDCVVSALGAKVLSSVKDRFINFFVGNTINSSYFPDHPLHSISVRRLKETKDGFMFLTDQSYIDVLPEFRDSYPIKYVHAFESNNFIYFLTVQRETLDAQTFHTRIIRFCSINSGLHSYMEMPLECILTEKRKKRSTKKEVFNILQAAYVSKPGAQLARQIGASLNDDILFGVFAQSKPDSAEPMDRSAMCAFPIKYVNDFFNKIVNKNNVRCLQHFYGPNHEHCFNRTLLRNSSGCEARRDEYRTEFTTALQRVDLFMGQFSEVLLTSISTFIKGDLTIANLGTSEGRFMQVVVSRSGPSTPHVNFLLDSHPVSPEVIVEHTLNQNGYTLVITGKKITKIPLNGLGCRHFQSCSQCLSAPPFVQCGWCHDKCVRSEECLSGTWTQQICLPAIYKVFPNSAPLEGGTRLTICGWDFGFRRNNKFDLKKTRVLLGNESCTLTLSESTMNTLKCTVGPAMNKHFNMSIIISNGHGTTQYSTFSYVDPVITSISPKYGPMAGGTLLTLTGNYLNSGNSRHISIGGKTCTLKSVSNSILECYTPAQTISTEFAVKLKIDLANRETSIFSYREDPIVYEIHPTKSFISGGSTITGVGKNLNSVSVPRMVINVHEAGRNFTVACQHRSNSEIICCTTPSLQQLNLQLPLKTKAFFMLDGILSKYFDLIYVHNPVFKPFEKPVMISMGNENVLEIKGNDIDPEAVKGEVLKVGNKSCENIHLHSEAVLCTVPNDLLKLNSELNIEWKQAISSTVLGKVIVQPDQNF
modifications: biotin on the biotin acceptor sequence (BirA-mediated)
- Kd [1]: 4.5 nM
- koff [1]: 0.0007 s⁻¹
- Kd [2]: 211 nM
- koff [2]: 0.019 s⁻¹
- Kd [3]: 91.6 nM
- koff [3]: 0.004 s⁻¹
- Kd (aMD4 (free peptide)): 2.4 nM
- koff (aMD4 (free peptide)): 0.003 s⁻¹
- Kd (aMD5 (free peptide)): 2.3 nM
- koff (aMD5 (free peptide)): 0.011 s⁻¹

B2: human PlxnB1 ectodomain fragment (residues 1-535) with C-terminal biotin acceptor sequence (domain or fragment)
chain: LQPLPPTAFTPNGTYLQHLARDPTSGTLYLGATNFLFQLSPGLQLEATVSTGPVLDSRDCLPPVMPDECPQAQPTNNPNQLLLVSPGALVVCGSVHQGVCEQRRLGQLEQLLLRPERPGDTQYVAANDPAVSTVGLVAQGLAGEPLLFVGRGYTSRGVGGGIPPITTRALWPPDPQAAFSYEETAKLAVGRLSEYSHHFVSAFARGASAYFLFLRRDLQAQSRAFRAYVSRVCLRDQHYYSYVELPLACEGGRYGLIQAAAVATSREVAHGEVLFAAFSSAAPPTVGRPPSAAAGASGASALCAFPLDEVDRLANRTRDACYTREGRAEDGTEVAYIEYDVNSDCAQLPVDTLDAYPCGSDHTPSPMASRVPLEATPILEWPGIQLTAVAVTMEDGHTIAFLGDSQGQLHRVYLGPGSDGHPYSTQSIQQGSAVSRDLTFDGTFEHLYVMTQSTLLKVPVASCAQHLDCASCLAHRDPYCGWCVLLGRCSRRSECSRGQGPEQWLWSFQPELGCLQ
modifications: biotin on the biotin acceptor sequence (BirA-mediated)
- Kd [4]: 0.023 nM
- koff [4]: 0.0004 s⁻¹
- Kd [5]: 61.4 nM
- koff [5]: 0.055 s⁻¹
- Kd [6]: 8.26 nM
- koff [6]: 0.0014 s⁻¹
- Kd [7]: 45.8 nM
- koff [7]: 0.0041 s⁻¹
- Kd [8]: 3250 nM
- koff [8]: 0.051 s⁻¹
- Kd (PB1m7 (free peptide)): 275 nM
- koff (PB1m7 (free peptide)): 0.01 s⁻¹
- Kd (PB1m6A9 (free peptide)): 0.28 nM
- koff (PB1m6A9 (free peptide)): 0.0021 s⁻¹
